Test results taken from patent publication US20110135634A1, “METHODS OF INHIBITING INFECTION BY DIVERSE SUBTYPES OF DRUG-RESISTANT HIV-1” (priority 2007, published 2011).
Several values for one entry are separate records, joined by “and”; a condition that tells them apart may be missing. Equal values may be shown once. Read-outs that look alike come from different tables or passages of the source.

Key:
[1] = system: HIV-1; conditions: dose-dependent, treatment period of 10-14 days; cited from earlier work
[2] = system: reporter viruses pseudotyped with HIV-1SF162 envelope (U87-CD4-CCR5 cells); test: HIV-1 pseudovirus assay, SF162 envelope; format: cell-based; conditions: Human immunodeficiency virus 1, U87/CD4/CCR5
Text: A self-inactivating (SIN) vector was derived from the pNL4-3ΔEnv-luciferase vector (Dragic et al. 1996) by deleting 507 basepairs in the U3 region of the 3′ long terminal repeat (LTR) so as to remove the TATA box and transcription factor binding sites. The human cytomegalovirus promoter was inserted upstream of the luciferase (luc) gene to enable expression of luciferase following integration.
Reporter viruses pseudotyped with HIV-1JR-FL or HIV-1SF162 envelopes were generated by cotransfection of 293T cells with the SIN vector and the appropriate pcDNA env-expressing vector as previously described (Dragic et al. 1996). […] Cultures were incubated for 72 h at 37° C. in DMEM containing 10% fetal bovine serum, […] puromycin, 0.3 mg/mL geneticin, antibiotics, and 0.5% DMSO. Luciferase activity (relative light units or RLU) was measured using. BrightGlo reagent (Promega, Madison, Wis.) according to the manufacturer's instructions.
Experimental design and data analysis were based on the combination index (CI) method (Chou et al. 1991; Chou et al. 1984). […] The mutually exclusive CI formula was used for combinations of CCR5 inhibitors, while the mutually non-exclusive formula was utilized for combinations of inhibitors to distinct targets (Chou et al. 1991). Each test was conducted 4-12 times. Synergy, additivity and antagonism are indicated by CI<1, CI=1 and CI>1, respectively.

[3] = system: HIV-1 Env-mediated fusion (HeLa-EnvJRFL and CEM NKR-CCR5 cells); test: RET cell-cell fusion assay, combination testing (Part II, Example 1)
Method: Serial dilutions of small molecules were conducted in DMSO. Subsequent dilutions were conducted in medium to achieve a fmal DMSO concentration in the assay of 0.5%. Peptides and mAbs were diluted in PBS in the absence of DMSO.
Briefly, fluorescein octadecyl ester (F18; Molecular Probes, Eugene, Oreg.; 5 mg/ml in ethanol), was diluted 1:800 in DMEM labeling medium (DMEM; Invitrogen, Carlsbad, Calif.) with 10% fetal bovine serum (FBS; HyClone, Logan, Utah) and adjusted to an A506 of 0.34±10%. […] Both dyes were further diluted 2-fold by addition to cells in T75-cm^2 flasks. HeLa-EnvJRFL and CEM NKR-CCR5 cells were incubated overnight in F18- and R18-containing culture medium, respectively. The following day, medium from HeLa-EnvJRFL cells was removed and 10 ml of 0.5 mM EDTA was added and incubated at 37° C. for 5 min. EDTA was removed and the flask was returned to the incubator for another 5 min followed by striking of the flask to dislodge cells. […] Suspension CEM NKR-CCR5 cells were added directly to a separate 50-ml conical centrifuge tube. […] Ten μl of each cell type (15,000 cells) were seeded into wells of a 384-well plate. Inhibitor compounds were added immediately thereafter to bring the final well volume to 40 μl, and the plates were incubated for 4 h at 37° C. Compounds were tested individually and in combination at a fixed molar ratio or mass ratio over a range of serial dilutions.
The “% RET” was calculated according to the following formula after subtraction of background (blank) readings:
The “% Inhibition” was calculated according to the following formula: […]
IC50 values were generated for all combinations as described above. Combination Index (CI) and Dose Reduction (DR) values were calculated according to the following formulas:
Combinations with CI<1 are determined to be synergistic, whereas combinations with CI>1 are determined to be antagonistic. […]
In this assay, effector cells are labeled with the F18 dye and target cells with the R18 dye. […] Drug susceptibility is measured by adding serial concentrations of drugs to target cells prior to addition of effector cells.

[4] = system: reporter viruses pseudotyped with HIV-1JR-FL envelope (U87-CD4-CCR5 cells); test: microbe, parasite or virus in culture; format: cell-based
[5] = target: CCR5 (CC-chemokine receptor 5) (human) (UniProt P51681); test: cell-based or functional assay
[6] = target: CCR5 (CC-chemokine receptor 5) (human) (UniProt P51681); test: flow cytometry competition; unlabeled PRO 140 pre-incubated with CEM.NKR-CCR5 cells, then 5 nM PRO 140-PE as competitor; MFI read-out
[7] = target: CCR5 (CC-chemokine receptor 5) (human) (UniProt P51681); test: flow cytometry competition; unlabeled PRO 140 pre-incubated with CEM.NKR-CCR5 cells, then 5 nM PRO 140-PE as competitor; percent cells gated read-out
[8] = target: CCR5 (CC-chemokine receptor 5) (human) (UniProt P51681); test: cell-based or functional assay; remark: listed apart in the source
[9] = target: CCR5 (CC-chemokine receptor 5) (human) (UniProt P51681); test: displacement of labelled ligand; PRO 140 pre-incubated with CEM.NKR-CCR5 cells, then 2 nM 3H-UK-427,857 (small molecule) as competitor; scintillation counting

Molecule: CCCCN1C(=O)[C@@H]([C@H](O)C2CCCCC2)NC(=O)C12CCN(Cc1ccc(Oc3ccc(C(=O)O)cc3)cc1)CC2 [GW873140]
- mean reductions in HIV-1 RNA levels [1]: ~1 log10

Molecule: Cc1nnc(C(C)C)n1C1CC2CCC(C1)N2CC[C@H](NC(=O)C1CCC(F)(F)CC1)c1ccccc1 (stereo partly drawn) [UK-427,857, reference compound]
- IC50 [2]: 0.00087 µM
- IC90 [2]: 0.013 µM
- Mean Dose Reduction (2D7) ([3]; 2D7 in combination with the labelled inhibitor, 1:1 molar ratio): 2.45 ± 0.12
- Mean CI ([3]; PRO 140 in combination with the labelled inhibitor, 1:1 molar ratio, Combination Index at IC50): 0.59 ± 0.04
- Mean Dose Reduction (Cpd in combination) ([3]; labelled inhibitor in combination with 2D7, 1:1 molar ratio): 5.73 ± 0.54
- IC90 ([4]; HIV-1 envelope JRFL, 1st inhibitor alone): 0.046 µM
- IC50 ([4]; Human immunodeficiency virus 1, U87/CD4/CCR5): 0.0074 µM

Molecule: anti-CCR5 mAb 2D7 (antibody)
- IC50, HIV-1 reporter virus pseudotyped with JRFL envelope, U87-CD4-CCR5 cells [5]: 0.0088 µM
- IC50, HIV-1 reporter virus pseudotyped with SF162 envelope, U87-CD4-CCR5 cells [5]: 0.0022 µM
- IC90, HIV-1 reporter virus pseudotyped with JRFL envelope, U87-CD4-CCR5 cells [5]: > 0.2 µM
- IC90, HIV-1 reporter virus pseudotyped with SF162 envelope, U87-CD4-CCR5 cells [5]: 0.074 µM

Molecule: RANTES: CC-chemokine, natural peptide ligand of CCR5
- inhibition of HIV-1 pseudovirus entry ([4]; compound alone (data not shown)): Neither TAK-779 nor RANTES mediated consistent, high-level inhibition

B1: PRO 140, humanized IgG4,κ anti-CCR5 monoclonal antibody (antibody, INN chains, looked up, V domains shown)
VH: EVQLVESGGGLVKPGGSLRLSCAASGYTFSNYWIGWVRQAPGKGLEWIGDIYPGGNYIRNNEKFKDKTTLSADTSKNTAYLQMNSLKTEDTAVYYCGSSFGSNYVFAWFTYWGQGTLVTVSS
VL: DIVMTQSPLSLPVTPGEPASISCRSSQRLLSSYGHTYLHWYLQKPGQSPQLLIYEVSNRFSGVPDRFSGSGSGTDFTLKISRVEAEDVGVYYCSQSTHVPLTFGQGTKVEIK
- EC50 [6]: 0.0025 µM
- EC90 [7]: 0.017 µM
- IC50, HIV-1 reporter virus pseudotyped with JRFL envelope, U87-CD4-CCR5 cells [8]: 0.0022 µM
- IC50, HIV-1 reporter virus pseudotyped with SF162 envelope, U87-CD4-CCR5 cells [8]: 0.0013 µM
- IC50, PhenoSense HIV Entry assay, U87-CD4/CCR5 cells, virus DUAL [8]: 0.347 mg/L
- IC50, PhenoSense HIV Entry assay, U87-CD4/CCR5 cells, virus JRCSF [8]: 0.574 mg/L
- IC50, PhenoSense HIV Entry assay, U87-CD4/CCR5 cells, virus Panel 1 (subtype A) [8]: 0.199 mg/L
- IC50, PhenoSense HIV Entry assay, U87-CD4/CCR5 cells, virus Panel 2 (subtype A) [8]: 0.305 mg/L
- IC50, PhenoSense HIV Entry assay, U87-CD4/CCR5 cells, virus Panel 3 (subtype A) [8]: 0.414 mg/L
- IC50, PhenoSense HIV Entry assay, U87-CD4/CCR5 cells, virus Panel 4 (subtype A) [8]: 0.508 mg/L
- IC50, PhenoSense HIV Entry assay, U87-CD4/CCR5 cells, virus Panel 5 (subtype C) [8]: 0.356 mg/L
- IC50, PhenoSense HIV Entry assay, U87-CD4/CCR5 cells, virus Panel 6 (subtype C) [8]: 0.318 mg/L
- IC50, PhenoSense HIV Entry assay, U87-CD4/CCR5 cells, virus Panel 7 (subtype C) [8]: 0.0955 mg/L
- IC50, PhenoSense HIV Entry assay, U87-CD4/CCR5 cells, virus Panel 8 (subtype C) [8]: 0.527 mg/L
- IC50, PhenoSense HIV Entry assay, U87-CD4/CCR5 cells, virus Panel 9 (subtype D) [8]: 0.679 mg/L
- IC50, PhenoSense HIV Entry assay, U87-CD4/CCR5 cells, virus Panel 10 (subtype D) [8]: 0.59 mg/L
- IC50, PhenoSense HIV Entry assay, U87-CD4/CCR5 cells, virus Panel 11 (subtype D) [8]: 0.365 mg/L
- IC50, PhenoSense HIV Entry assay, U87-CD4/CCR5 cells, virus Panel 12 (subtype D) [8]: 0.238 mg/L
- IC50, PhenoSense HIV Entry assay, U87-CD4/CCR5 cells, virus Panel 13 (subtype F) [8]: 0.788 mg/L
- IC50, PhenoSense HIV Entry assay, U87-CD4/CCR5 cells, virus Panel 14 (subtype F) [8]: 0.657 mg/L
- IC50, PhenoSense HIV Entry assay, U87-CD4/CCR5 cells, virus Panel 15 (subtype F) [8]: 0.332 mg/L
- IC50, PhenoSense HIV Entry assay, U87-CD4/CCR5 cells, virus Panel 16 (subtype F) [8]: 0.342 mg/L
- IC50, PhenoSense HIV Entry assay, U87-CD4/CCR5 cells, virus Panel 17 (subtype G) [8]: 0.26 mg/L
- IC50, PhenoSense HIV Entry assay, U87-CD4/CCR5 cells, virus Panel 18 (subtype G) [8]: 1.43 mg/L
- IC50, PhenoSense HIV Entry assay, U87-CD4/CCR5 cells, virus Panel 19 (subtype G) [8]: 0.384 mg/L
- IC50, PhenoSense HIV Entry assay, U87-CD4/CCR5 cells, virus Panel 20 (subtype G) [8]: 0.432 mg/L
- IC50, PhenoSense HIV Entry assay, U87-CD4/CCR5 cells, virus Panel 21 (subtype J) [8]: 0.525 mg/L
- IC50, PhenoSense HIV Entry assay, U87-CD4/CCR5 cells, virus Panel 22 (subtype J) [8]: 0.436 mg/L
- IC50, PhenoSense HIV Entry assay, U87-CD4/CCR5 cells, virus Panel 23 (subtype J) [8]: 0.269 mg/L
- IC50, PhenoSense HIV Entry assay, U87-CD4/CCR5 cells, virus Panel 24 (subtype B) [8]: 0.547 mg/L
- IC50, PhenoSense HIV Entry assay, U87-CD4/CCR5 cells, virus Panel 25 (subtype B) [8]: 0.519 mg/L
- IC50, PhenoSense HIV Entry assay, U87-CD4/CCR5 cells, virus Panel 26 (subtype B) [8]: 0.442 mg/L
- IC50, PhenoSense HIV Entry assay, U87-CD4/CCR5 cells, virus Panel 27 (subtype B) [8]: 0.575 mg/L
- IC50, PhenoSense HIV Entry assay, U87-CD4/CCR5 cells, virus Panel 31 JRCSF-N43D [8]: 0.67 mg/L
- IC90, HIV-1 reporter virus pseudotyped with JRFL envelope, U87-CD4-CCR5 cells [8]: 0.028 µM
- IC90, HIV-1 reporter virus pseudotyped with SF162 envelope, U87-CD4-CCR5 cells [8]: 0.02 µM
- IC90, PhenoSense HIV Entry assay, U87-CD4/CCR5 cells, virus DUAL [8]: 1.56 mg/L
- IC90, PhenoSense HIV Entry assay, U87-CD4/CCR5 cells, virus JRCSF [8]: 18.3 mg/L
- IC90, PhenoSense HIV Entry assay, U87-CD4/CCR5 cells, virus Panel 1 (subtype A) [8]: 1.69 mg/L
- IC90, PhenoSense HIV Entry assay, U87-CD4/CCR5 cells, virus Panel 2 (subtype A) [8]: 4.51 mg/L
- IC90, PhenoSense HIV Entry assay, U87-CD4/CCR5 cells, virus Panel 3 (subtype A) [8]: 3.38 mg/L
- IC90, PhenoSense HIV Entry assay, U87-CD4/CCR5 cells, virus Panel 4 (subtype A) [8]: 3.45 mg/L
- IC90, PhenoSense HIV Entry assay, U87-CD4/CCR5 cells, virus Panel 5 (subtype C) [8]: 6.52 mg/L
- IC90, PhenoSense HIV Entry assay, U87-CD4/CCR5 cells, virus Panel 6 (subtype C) [8]: 3.37 mg/L
- IC90, PhenoSense HIV Entry assay, U87-CD4/CCR5 cells, virus Panel 7 (subtype C) [8]: 0.447 mg/L
- IC90, PhenoSense HIV Entry assay, U87-CD4/CCR5 cells, virus Panel 8 (subtype C) [8]: 7.25 mg/L
- IC90, PhenoSense HIV Entry assay, U87-CD4/CCR5 cells, virus Panel 9 (subtype D) [8]: 15.3 mg/L
- IC90, PhenoSense HIV Entry assay, U87-CD4/CCR5 cells, virus Panel 10 (subtype D) [8]: 5.65 mg/L
- IC90, PhenoSense HIV Entry assay, U87-CD4/CCR5 cells, virus Panel 11 (subtype D) [8]: 4.33 mg/L
- IC90, PhenoSense HIV Entry assay, U87-CD4/CCR5 cells, virus Panel 12 (subtype D) [8]: 2.08 mg/L
- IC90, PhenoSense HIV Entry assay, U87-CD4/CCR5 cells, virus Panel 13 (subtype F) [8]: 16.7 mg/L
- IC90, PhenoSense HIV Entry assay, U87-CD4/CCR5 cells, virus Panel 14 (subtype F) [8]: 21.9 mg/L
- IC90, PhenoSense HIV Entry assay, U87-CD4/CCR5 cells, virus Panel 15 (subtype F) [8]: 5.88 mg/L
- IC90, PhenoSense HIV Entry assay, U87-CD4/CCR5 cells, virus Panel 16 (subtype F) [8]: 14 mg/L
- IC90, PhenoSense HIV Entry assay, U87-CD4/CCR5 cells, virus Panel 17 (subtype G) [8]: 2.41 mg/L
- IC90, PhenoSense HIV Entry assay, U87-CD4/CCR5 cells, virus Panel 18 (subtype G) [8]: 50.7 mg/L
- IC90, PhenoSense HIV Entry assay, U87-CD4/CCR5 cells, virus Panel 19 (subtype G) [8]: 3.51 mg/L
- IC90, PhenoSense HIV Entry assay, U87-CD4/CCR5 cells, virus Panel 20 (subtype G) [8]: 5.65 mg/L
- IC90, PhenoSense HIV Entry assay, U87-CD4/CCR5 cells, virus Panel 21 (subtype J) [8]: 6.06 mg/L
- IC90, PhenoSense HIV Entry assay, U87-CD4/CCR5 cells, virus Panel 22 (subtype J) [8]: 9.24 mg/L
- IC90, PhenoSense HIV Entry assay, U87-CD4/CCR5 cells, virus Panel 23 (subtype J) [8]: 3.3 mg/L
- IC90, PhenoSense HIV Entry assay, U87-CD4/CCR5 cells, virus Panel 24 (subtype B) [8]: 10.1 mg/L
- IC90, PhenoSense HIV Entry assay, U87-CD4/CCR5 cells, virus Panel 25 (subtype B) [8]: 12.2 mg/L
- IC90, PhenoSense HIV Entry assay, U87-CD4/CCR5 cells, virus Panel 26 (subtype B) [8]: 8.91 mg/L
- IC90, PhenoSense HIV Entry assay, U87-CD4/CCR5 cells, virus Panel 27 (subtype B) [8]: 6.5 mg/L
- IC90, PhenoSense HIV Entry assay, U87-CD4/CCR5 cells, virus Panel 31 JRCSF-N43D [8]: 16.1 mg/L
- IC90, neutralization of primary R5 HIV-1 isolates, whole virus replication assay [8]: 3 mg/L and 4 mg/L
- EC50 [9]: 0.014 µM
